± gives the uncertainty stated by the source.

The nature of the series: self-splicing fitness, log relative to wild type (ln ratio); higher = more splicing; Tetrahymena group I intron in knt gene, E. coli kanamycin selection, DiMSum; sequences stand for … in CUCUCU…GGAGGGAAAAGUUAUCAGGCAUGCACCUGGUAGCUAGUCUUUAAACCAAUAGAUUGCAUCGGUUUAAAAGGCAAGACCGUCAAAUUGCGGGAAAGGGGUCAACAGCCGUUCAGUACCAAGUCUCAGGGGAAACUUUGAGAUGGCCUUGCAAAGGGUAUGGUAAUAAGCUGACGGACAUGGUCCUAACCACGCAGCCAAGUCCUAAGUCAACAGAUCUUCUGUUGAUAUGGAUGCAGUUCACAGACUAAAUGUCGGUCGGGGAAGAUGUAUUCUUCUCAUAAGAUAUAGUCGGACCUCUCCUUAAUGGGAGCUAGCGGAUGAAGUGAUGCAACACUGGAGCCGCUGGGAACUAAUUUGUAUGCGAAAGUAUAUUGAUUAGUUUUGGAGUACUCGUGGUCG
The procedure, abridged: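 Six replicate transformations of E. coli BL21(DE3) with a pET-22b(+) library were grown overnight at 37°C or 30°C. The library randomised all eight P1ex-region intron nucleotides, the intron lying in the knt kanamycin-resistance gene, and plates were LB agar with or without 25 μg/mL kanamycin plus 100 μg/mL carbenicillin, 50 μM IPTG and 0.2% rhamnose. Pooled colonies were amplicon-sequenced on an Illumina HiSeq 2500, and fitness is the DiMSum error-weighted combination of wild-type-normalised replicate fold changes, kanamycin versus none.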

Turning to CGGCAGCAAUAUUACGCUCC, the “self-splicing fitness (ln)” value (30 °C) is -4.03 ± 0.39 and the “self-splicing fitness (ln)” value (37 °C) is -1.08 ± 0.25.
Take CGGCAGCAAUAUUACGCUCG: the “self-splicing fitness (ln)” value (37 °C) is -2.93 ± 0.32.
CGGCAGCAAUAUUACGCUUA: the “self-splicing fitness (ln)” value is -0.963 ± 0.071 (30 °C) and -0.184 ± 0.073 (37 °C).
In the same order, the values of CGGCAGCAAUAUUACGGAUC are -2.88 ± 0.27 and -2.04 ± 0.2.
Consider CGGCAGCAAUAUUACGGAUG, for which the “self-splicing fitness (ln)” value runs as follows: (30 °C) -0.873 ± 0.075; (37 °C) 0.507 ± 0.11.
With CGGCAGCAAUAUUACGGCCA, the “self-splicing fitness (ln)” value by setting is: (30 °C) -0.0175 ± 0.12; (37 °C) 0.462 ± 0.16.
The corresponding values for CGGCAGCAAUAUUACGGCCC are -1.31 ± 0.27 and 0.163 ± 0.21.
In the same order, the values of CGGCAGCAAUAUUACGGCGU are -1.6 ± 0.097 and -0.949 ± 0.1.
The corresponding values for CGGCAGCAAUAUUACGGCUC are -0.945 ± 0.11 and -0.28 ± 0.15.
As for CGGCAGCAAUAUUACGGGAC, the “self-splicing fitness (ln)” value (37 °C) was -2.85 ± 0.47.
On to CGGCAGCAAUAUUACGGGCC, for which the “self-splicing fitness (ln)” value (30 °C) was -1.55 ± 0.2 and the “self-splicing fitness (ln)” value (37 °C) is -1.98 ± 0.32.
The corresponding values for CGGCAGCAAUAUUACGGUAG are -0.745 ± 0.076 and -0.0175 ± 0.074.
The corresponding values for CGGCAGCAAUAUUACGGUCU are -0.384 ± 0.066 and 0.364 ± 0.087.
As to CGGCAGCAAUAUUACGGUGA, the “self-splicing fitness (ln)” value (30 °C) is -3.35 ± 0.21 and the “self-splicing fitness (ln)” value (37 °C) is -1.75 ± 0.17.
In the same order, the values of CGGCAGCAAUAUUACGGUGC are -2.88 ± 0.16 and -2.18 ± 0.19.
The corresponding values for CGGCAGCAAUAUUACGGUUG are -2.93 ± 0.14 and -1.11 ± 0.12.
Consider CGGCAGCAAUAUUACGUCGA, for which the “self-splicing fitness (ln)” value was -3.24 ± 0.19 (30 °C) and -1.07 ± 0.15 (37 °C).
Consider CGGCAGCAAUAUUACGUCGC, for which the “self-splicing fitness (ln)” value (37 °C) was -0.603 ± 0.28.
CGGCAGCAAUAUUACGUGAC: the “self-splicing fitness (ln)” value runs as follows: (30 °C) -3.9 ± 0.13; (37 °C) -1.22 ± 0.1.
Take CGGGAGCAAUAUUACGACGG: the “self-splicing fitness (ln)” value is, setting by setting: (30 °C) -1.4 ± 0.23; (37 °C) -0.65 ± 0.42.
With CGGGAGCAAUAUUACGAGAU, the “self-splicing fitness (ln)” value (37 °C) is -2.17 ± 0.35.
As for CGGGAGCAAUAUUACGAGCG, the “self-splicing fitness (ln)” value (30 °C) was -1.78 ± 0.18 and the “self-splicing fitness (ln)” value (37 °C) is -1.19 ± 0.48.
On to CGGGAGCAAUAUUACGAGUA, for which the “self-splicing fitness (ln)” value (30 °C) is -2.74 ± 0.42.
Consider CGGGAGCAAUAUUACGCAUG, for which the “self-splicing fitness (ln)” value is, setting by setting: (30 °C) -2.83 ± 0.29; (37 °C) -0.773 ± 0.21.
Take CGGGAGCAAUAUUACGCGAG: the “self-splicing fitness (ln)” value (37 °C) is -2.93 ± 0.32.
As to CGGGAGCAAUAUUACGCGGA, the “self-splicing fitness (ln)” value (30 °C) was -2.82 ± 0.23 and the “self-splicing fitness (ln)” value (37 °C) is -2.93 ± 0.28.
On to CGGGAGCAAUAUUACGCGUA, for which the “self-splicing fitness (ln)” value (30 °C) was -2.29 ± 0.29 and the “self-splicing fitness (ln)” value (37 °C) is -1.03 ± 0.24.
CGGGAGCAAUAUUACGGCGU: the “self-splicing fitness (ln)” value was -3.6 ± 0.26 (30 °C) and -1.73 ± 0.21 (37 °C).
In the same order, the values of CGGGAGCAAUAUUACGGUCA are -3.17 ± 0.32 and -1.93 ± 0.28.
The corresponding values for CGGGAGCAAUAUUACGUAUA are -3.33 ± 0.33 and -2.4 ± 0.25.
With CGGGAGCAAUAUUACGUCGA, where the note is “37 °C”, the “self-splicing fitness (ln)” value was -1.71 ± 0.48.
CGGGAGCAAUAUUACGUCUG: the “self-splicing fitness (ln)” value is -3.61 ± 0.22 (30 °C) and -2.03 ± 0.22 (37 °C).
Consider CGGGAGCAAUAUUACGUGCA, for which the “self-splicing fitness (ln)” value reads like this: (30 °C) -3.02 ± 0.27; (37 °C) -2.29 ± 0.22.
Regarding CGGGAGCAAUAUUACGUGUG, the “self-splicing fitness (ln)” value runs as follows: (30 °C) -2.47 ± 0.16; (37 °C) -0.316 ± 0.11.
The corresponding values for CGGGAGCAAUAUUACGUUAA are -2.63 ± 0.28 and -1.68 ± 0.3.
Take CGGGAGCAAUAUUACGUUCC: for the setting “30 °C”, the “self-splicing fitness (ln)” value is -2.75 ± 0.31.
Consider CGGUAGCAAUAUUACGACCU, for which the “self-splicing fitness (ln)” value is 0.308 ± 0.21 (30 °C) and -0.233 ± 0.19 (37 °C).
The corresponding values for CGGUAGCAAUAUUACGACGC are -1.39 ± 0.16 and -0.431 ± 0.2.
CGGUAGCAAUAUUACGACGG: the “self-splicing fitness (ln)” value is, setting by setting: (30 °C) -0.359 ± 0.081; (37 °C) 0.071 ± 0.12.
In the same order, the values of CGGUAGCAAUAUUACGAGAU are -3.19 ± 0.3 and -2.32 ± 0.28.
With CGGUAGCAAUAUUACGAGGA, the “self-splicing fitness (ln)” value by setting is: (30 °C) -3.34 ± 0.46; (37 °C) -1.75 ± 0.29.

The record behind these values is the supplement of paper PMC7877785.
